{"source": "patent US20100272689A1", "about": "“Protease Having Algicidal Activity, Gene Encoding the Same and Algicidal Formulation Comprising the Same” (KOREA OCEAN RESEARCH & DEVELOPMENT INSTITUTE, priority 2007, published 2010)", "molecules": {"B1": {"name": "FJ: protein of Flavobacterium johnsoniae UW101 with homology to KAOT1—10476 (protein, listed as Flavobacterium johnsoniae)", "chain": "MKKIKSILILSFTALVLLSCNKEDETVSSGQESLKVTPEVLEKLKSLSLNTSDVQVIQNTSLEGAVEDAFLVEGDIIITQAQLNKMDLHGGITTEQYRTTNLVSAPRTIKVVGLSGTGTTALTTNMRNGLQAAINRYNNLGLSINFTLTFSSSTSGANIVVRRQTGSAGGVAGFPSGGNPYNSVTLYSGLDSYSTNVNAHVAAHEIGHCIGLRHTDWFSRQSCGQNSNEGTAGVGAILIPGTPSGYDATSYMRACFGSNETGAFNANDITALNYLY", "modifications": "Flavobacterium johnsoniae UW101 (ZP_01247095)"}, "B2": {"name": "CRO: protein of Croceibacter atlanticus HTCC2559 with homology to KAOT1—10476 (protein, listed as Croceibacter atlanticus)", "chain": "MVFVSCEKDNDTNNAEVADTNEVTTGSLETLGVNTDLTPTNLDQATLDLIASKHLSPIGAQEELRYLPDGTSEKAIRIEGDIVMTKAELEELEFNGYSNENAQYSTNALVSPQTITIIGYTGGSQALTSSEQTALQWAVANYNRLNLNINFSLTFGTNYQNKDMVVYNNTVNNPSGAGGSAGFPSGGNPHKFVQIYGLSNYNTNVIEHVITHEIGHSVGFRHTDYFSRQSCGQNTNEGTAGVGANHIPGTPTGYDSTSIMLACFSSGEDGEFNSNDITALNYLY", "modifications": "Croceibacter atlanticus HTCC2559 (ZP_00951344)"}, "B3": {"name": "KAOT1_10476: metallo protease of Kordia algicida OT1: signal peptide (1-27), processing peptide (28-98), mature region (99-278) (protein, listed as Kordia algicida)", "chain": "MKKIKNLTFALALGLGITMVSCSKDTAVVDEEQDTAIGIPQDVLQKAQSLHFNTFDMQEASFEKPNGKIEEGYMMEGDIFFTRDQLMNMELGGDITSKQYRTNNLVSPGVITIIGYTGNNSNGLTTKMQTGLRWAVDNYNALNLSISFQLTFGTDYQNKDMVVYQVQGGAGGSAGFPSGGNPYKWVKINSGMAPYSNNVHEHVIGHEIGHSIGFRHSDYFSRQSCGQNSNEGSAGVGAIHIPGTPTGWDPTSLMNACFSSSEDGEFNGNDITALNFLY", "modifications": "KAOT1_10476 of Kordia algicida OT-1"}, "B4": {"name": "KAOT1_11562: protein of Kordia algicida with high homology to KAOT1—10476 (protein, listed as Kordia algicida)", "chain": "MKRNFKIQMLYVLLTMLLLAGCQNDTEEELVEEATTAVERVDVKWLAPDDHPVVQLLYSRGYERGTIYETDEHFLAPPDLLYSKDINDYDLSDNGSNAEQAYNTGKLVSLNRMRINVFLDNSIGTDLQTQSVNAMNELNGINNCALFFVRVFNANQAQITIRSDFGAESNNVLGRAGFPSNGRPFDTVTLNVDRLDDFGADIRRNTIIHELGHCVGLRHTDWQANRERSAVNIPGTSANDTGSIMWHTINGGTPFTNGDLTAFRALFPRALRIDVVNEIDDYDYSGEIYVLDNVFVDVFTDGSYSTQTTLNRNVNVSYRINVQEYNHTSGTYYYSRNRTLTAGNNRYYIDDEEEECSPYQGETCTRQDLEIRLATSIL", "modifications": "Kordia algicida KAOT1_11562"}, "B5": {"name": "MED: protein of Leeuwenhoekiella blandensis MED217 with homology to KAOT1—10476 (protein, listed as Leeuwenhoekiella blandensis)", "chain": "MTSCSEDAEQTTLPEAQPTSNLEVSSEIIQQVEDLGMNANYVRWDDFYFPDGSSEPRLFLEEDVVVTPEQLSSMSANVEESKSGKGDSKQYRTSALVSQGRTISIIGYTGGSQALSQKERTALQWAVANYNRLSGVSISFNLTFGTDYQNKDMVVYNNTVNNPSGAGGSAGFPSNGLPYKFVQIYGLANYDTNVVEHVMTHEIGHSVGFRHTDWFSRQSCGQNVYEGGDANHVSGTPTGYDSTSIMLACFSANEDGEFNANDITALNNMY", "modifications": "Leeuwenhoekiella blandensis MED217 (ZP_01059780)"}}, "test_in_all_cases": "Algicidal activity by cell count after 24 hr (Lugol staining)", "format_in_all_cases": "cell-based", "key": {"[1]": {"system": "Heterosigma akashiwo", "settings": "for Algicidal activity (degree of inhibition): 50 μl of protein (100 μg/ml), after 24 hr", "method": "(§1) Organisms used as host for algicidal bacteria screen are Cochlodinium polykrikoides, Thalassiosira sp., Heterosigma akashiwo, Skeletonema costatum, Alexandrium sp., Gymnodium sp., Chaetoceros cuvisetus. Each algae cell was grown to log phase in F/2 broth (0.075 g NaNO3, 0.005 g NaH2PO4?H2O, 0.030 g Na2SiO3?9H2O, 1 ml F/2 trace metal solution, 1 ml F/2 vitamin solution and 1,000 ml aged seawater) [Stein, Handbook of phycological methods, Cambridge Univ. Press, 1973].\n(§2) The cultured red tide organisms were diluted in F/2 broth to a final density of 0.05 (excitation wavelength=434 nm, emission wavelength=670 nm)on the fluorescent intensity using fluoro-spectrophotometer (Hitachi, Japan), and then 2.7 ml aliquots were dispensed into several test tubes (110 mm×10 mm) to prepare for the MPN (most probable number) method.\n(§3) To measure algicidal activity of 10476—7 protein (SEQ ID NO:27), 50 μl of said protein (100 μg/ml) was added to the culture solutions of Cochlodinium polykrikoides, Thalassiosira sp., Heterosigma akashiwo, Skeletonema costatum, Alexandrium sp., Chaetoceros cuvisetus and Gymnodniium sp. which were prepared in Example 2. After 24 hr, said culture solutions were stained with 1% Lugol's iodine solution, and then the cell number was counted. Experimental groups with protease (experimental group 1 and 2) were compared with control group without protease in cell number and the degree of inhibition.\n(§4) To check algicidal activity of proteins isolated Flavobacterium johnsoniae UW101 (ZP—01247095, SEQ ID NO: 4), Croceibacter atlanticus HTCC2559 (ZP—00951344, SEQ ID NO: 5), Leeuwenhoekiella blandensis MED217 (ZP—01059780, SEQ ID NO: 6) and Kordia algicida KAOT1—11562 (SEQ ID NO: 7), 50 μl of said protein (100 μg/ml) was added to the culture solutions of Cochlodinium polykrikoides, Thalassiosira sp., Heterosigma akashiwo, Skeletonema costatum, Alexandrium sp., Chaetoceros cuvisetus, and Gymnodium sp., which were prepared in Example 2. After 24 hr, said culture solutions were stained with 1% Lugol's iodine solution, and then the cell number was counted.\n(§5) Experimental groups with protease (experimental group 1 and 2) were compared with control group without protease in cell number and the degree of inhibition."}, "[2]": {"system": "Gymnodinium sp.", "settings": "for Algicidal activity (degree of inhibition): 50 μl of protein (100 μg/ml), after 24 hr", "method": "as §1, §2, §3, §4, §5"}, "[3]": {"system": "Skeletonema costatum", "settings": "for Algicidal activity (degree of inhibition): 50 μl of protein (100 μg/ml), after 24 hr", "method": "as §1, §2, §3, §4, §5"}, "[4]": {"system": "Alexandrium sp.", "settings": "for Algicidal activity (degree of inhibition): 50 μl of protein (100 μg/ml), after 24 hr", "method": "as §1, §2, §3, §4, §5"}, "[5]": {"system": "Thalassiosira sp.", "settings": "for Algicidal activity (degree of inhibition): 50 μl of protein (100 μg/ml), after 24 hr", "method": "as §1, §2, §3, §4, §5"}, "[6]": {"system": "Cochlodinium polykrikoides", "settings": "Cochlodinium polykrikoides; for Algicidal activity (degree of inhibition): 50 μl of protein (100 μg/ml), after 24 hr", "method": "as §1, §2, §3, §4, §5"}, "[7]": {"system": "Chaetoceros cuvisetus", "settings": "for Algicidal activity (degree of inhibition): 50 μl of protein (100 μg/ml), after 24 hr", "method": "as §1, §2, §3, §4, §5"}}, "data": [{"molecule": "B1", "values": [{"measurement": "Algicidal activity (degree of inhibition)", "setting": "[1]", "value": "++++ (++++ means >75% the degree of inhibition)"}, {"measurement": "Algicidal activity (degree of inhibition)", "setting": "[2]", "value": "++++ (++++ means >75% the degree of inhibition)"}, {"measurement": "Algicidal activity (degree of inhibition)", "setting": "[3]", "value": "++ (++ means 25-50%)"}, {"measurement": "Algicidal activity (degree of inhibition)", "setting": "[4]", "value": "++++ (++++ means >75% the degree of inhibition)"}, {"measurement": "Algicidal activity (degree of inhibition)", "setting": "[5]", "value": "++++ (++++ means >75% the degree of inhibition)"}, {"measurement": "Algicidal activity (degree of inhibition)", "setting": "[6]", "value": "++++ (++++ means >75% the degree of inhibition)"}, {"measurement": "Algicidal activity (degree of inhibition)", "setting": "[7]", "value": "++++ (++++ means >75% the degree of inhibition)"}]}, {"molecule": "B2", "values": [{"measurement": "Algicidal activity (degree of inhibition)", "setting": "[1]", "value": "++++ (++++ means >75% the degree of inhibition)"}, {"measurement": "Algicidal activity (degree of inhibition)", "setting": "[2]", "value": "++++ (++++ means >75% the degree of inhibition)"}, {"measurement": "Algicidal activity (degree of inhibition)", "setting": "[4]", "value": "++++ (++++ means >75% the degree of inhibition)"}, {"measurement": "Algicidal activity (degree of inhibition)", "setting": "[5]", "value": "++++ (++++ means >75% the degree of inhibition)"}, {"measurement": "Algicidal activity (degree of inhibition)", "setting": "[6]", "value": "++++ (++++ means >75% the degree of inhibition)"}, {"measurement": "Algicidal activity (degree of inhibition)", "setting": "[7]", "value": "++++ (++++ means >75% the degree of inhibition)"}]}, {"molecule": "B3", "values": [{"measurement": "Algicidal activity (in words)", "setting": "[1]", "value": "showed algicidal activity"}, {"measurement": "Algicidal activity (degree of inhibition)", "setting": "[1]", "value": "++++ (++++ means >75% the degree of inhibition)"}, {"measurement": "Algicidal activity (in words)", "setting": "[2]", "value": "showed algicidal activity"}, {"measurement": "Algicidal activity (degree of inhibition)", "setting": "[2]", "value": "++++ (++++ means >75% the degree of inhibition)"}, {"measurement": "Algicidal activity (in words)", "setting": "[3]", "value": "showed algicidal activity"}, {"measurement": "Algicidal activity (degree of inhibition)", "setting": "[3]", "value": "+ (+ means <25%)"}, {"measurement": "Algicidal activity (in words)", "setting": "[4]", "value": "showed algicidal activity"}, {"measurement": "Algicidal activity (degree of inhibition)", "setting": "[4]", "value": "++++ (++++ means >75% the degree of inhibition)"}, {"measurement": "Algicidal activity (in words)", "setting": "[5]", "value": "showed algicidal activity"}, {"measurement": "Algicidal activity (degree of inhibition)", "setting": "[5]", "value": "++++ (++++ means >75% the degree of inhibition)"}, {"measurement": "Algicidal activity (in words)", "setting": "[6]", "value": "cell growth was inhibited effectively"}, {"measurement": "Algicidal activity (degree of inhibition)", "setting": "[6]", "value": "++++ (++++ means >75% the degree of inhibition)"}, {"measurement": "Algicidal activity (in words)", "setting": "[7]", "value": "showed algicidal activity"}, {"measurement": "Algicidal activity (degree of inhibition)", "setting": "[7]", "value": "++++ (++++ means >75% the degree of inhibition)"}]}, {"molecule": "B4", "values": [{"measurement": "Algicidal activity (degree of inhibition)", "setting": "[1]", "value": "++++ (++++ means >75% the degree of inhibition)"}, {"measurement": "Algicidal activity (degree of inhibition)", "setting": "[2]", "value": "++++ (++++ means >75% the degree of inhibition)"}, {"measurement": "Algicidal activity (degree of inhibition)", "setting": "[3]", "value": "+ (+ means <25%)"}, {"measurement": "Algicidal activity (degree of inhibition)", "setting": "[4]", "value": "++++ (++++ means >75% the degree of inhibition)"}, {"measurement": "Algicidal activity (degree of inhibition)", "setting": "[5]", "value": "++++ (++++ means >75% the degree of inhibition)"}, {"measurement": "Algicidal activity (degree of inhibition)", "setting": "[6]", "value": "++++ (++++ means >75% the degree of inhibition)"}, {"measurement": "Algicidal activity (degree of inhibition)", "setting": "[7]", "value": "++++ (++++ means >75% the degree of inhibition)"}]}, {"molecule": "B5", "values": [{"measurement": "Algicidal activity (degree of inhibition)", "setting": "[1]", "value": "++++ (++++ means >75% the degree of inhibition)"}, {"measurement": "Algicidal activity (degree of inhibition)", "setting": "[2]", "value": "++++ (++++ means >75% the degree of inhibition)"}, {"measurement": "Algicidal activity (degree of inhibition)", "setting": "[3]", "value": "++++ (++++ means >75% the degree of inhibition)"}, {"measurement": "Algicidal activity (degree of inhibition)", "setting": "[4]", "value": "++++ (++++ means >75% the degree of inhibition)"}, {"measurement": "Algicidal activity (degree of inhibition)", "setting": "[5]", "value": "++++ (++++ means >75% the degree of inhibition)"}, {"measurement": "Algicidal activity (degree of inhibition)", "setting": "[6]", "value": "++++ (++++ means >75% the degree of inhibition)"}, {"measurement": "Algicidal activity (degree of inhibition)", "setting": "[7]", "value": "++++ (++++ means >75% the degree of inhibition)"}]}]}
